Experimental data: article doi:10.1101/2020.08.04.235895, “Analysis of Structure and function by the LysR-Type Transcriptional Regulator CbbR of Nostoc sp. PCC 7120”

Legend:
CbbR_7120 [1] = target: T1, CbbR_7120 (Nostoc sp. PCC 7120, UniProt Q8YQ82 1-337); experiment: competition EMSA; competitor vs FAM-DNA; EMSA: 5X buffer 100 mM HEPES pH 7.6, 5 mM EDTA, 50 mM (NH4)2SO4, 5 mM DTT, 1% Tween 20, 150 mM KCl (2.5 uL per reaction, volume printed as 10 mL); 15 min on ice; 6% TBE-PAGE on ice; conditions: protein: recombinant; tags: N-terminal 6xHis; chain copies: 4; blunt
T1 sequence: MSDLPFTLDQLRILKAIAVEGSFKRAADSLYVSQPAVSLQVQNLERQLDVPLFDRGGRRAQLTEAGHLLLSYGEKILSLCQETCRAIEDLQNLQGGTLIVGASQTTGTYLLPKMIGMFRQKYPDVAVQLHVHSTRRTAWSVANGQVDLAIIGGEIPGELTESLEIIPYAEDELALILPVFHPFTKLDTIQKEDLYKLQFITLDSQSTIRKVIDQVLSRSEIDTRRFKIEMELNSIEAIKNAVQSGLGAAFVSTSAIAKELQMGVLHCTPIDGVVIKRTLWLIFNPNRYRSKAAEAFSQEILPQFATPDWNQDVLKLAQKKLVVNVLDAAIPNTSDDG

CbbR_7120 [2] = target: T1, CbbR_7120; experiment: as above; conditions: protein: recombinant; tags: N-terminal 6xHis; chain copies: 4; blunt; remark: listed apart in the source
CbbR_7120 [3] = target: T1, CbbR_7120; experiment: competition EMSA; competitor vs FAM-DNA; no significant change in free FAM-DNA; EMSA: 5X buffer 100 mM HEPES pH 7.6, 5 mM EDTA, 50 mM (NH4)2SO4, 5 mM DTT, 1% Tween 20, 150 mM KCl (2.5 uL per reaction, volume printed as 10 mL); 15 min on ice; 6% TBE-PAGE on ice; conditions: protein: recombinant; tags: N-terminal 6xHis; chain copies: 4; blunt
CbbR_7120 [4] = target: T1, CbbR_7120; experiment: competition EMSA; competitor vs FAM-DNA; EMSA: 5X buffer 100 mM HEPES pH 7.6, 5 mM EDTA, 50 mM (NH4)2SO4, 5 mM DTT, 1% Tween 20, 150 mM KCl (2.5 uL per reaction, volume printed as 10 mL); 15 min on ice; 6% TBE-PAGE on ice; conditions: protein: recombinant; tags: N-terminal 6xHis; chain copies: 4; blunt; remark: listed apart in the source
CbbR_7120 [5] = target: T1, CbbR_7120; experiment: EMSA; EMSA: 5X buffer 100 mM HEPES pH 7.6, 5 mM EDTA, 50 mM (NH4)2SO4, 5 mM DTT, 1% Tween 20, 150 mM KCl (2.5 uL per reaction, volume printed as 10 mL); 15 min on ice; 6% TBE-PAGE on ice; conditions: protein: recombinant; tags: N-terminal 6xHis; chain copies: 4; label: 5'-FAM on forward strand; blunt

B1: BOX 1 (dsDNA)
DNA 1: TAATAACAAATTTAAATAT
DNA 2: ATATTTAAATTTGTTATTA
For B1, the binding signal (CbbR_7120 [1]) was ~400 competitor:FAM-DNA ratio for complete competition.

B2: BOX 3 (dsDNA)
DNA 1: TTATGCCATTTCTTGATAT
DNA 2: ATATCAAGAAATGGCATAA
In the case of B2, the binding signal (CbbR_7120 [2]) is reported as ~1000 competitor:FAM-DNA ratio for complete competition.

B3: BOX 2 (dsDNA)
DNA 1: AGTTAAGAACTTTCAAAGA
DNA 2: TCTTTGAAAGTTCTTAACT
B3: no binding (CbbR_7120 [3]).

B4: BOX1OP1 (dsDNA)
DNA 1: TGTAATAACAAATTTAAATATGTCATATAACAAATTTAAATATGT
DNA 2: ACATATTTAAATTTGTTATATGACATATTTAAATTTGTTATTACA
For B4, the binding signal (CbbR_7120 [4]) was ~10 competitor:FAM-DNA ratio for complete competition.

B5: FAM-DNA (rbcLXS promoter probe) (dsDNA)
DNA 1: TAATAACAAATTTAAATATGTAAGTTAAGAACTTTCAAAGAATAACTTATGCCATTTCTTGATAT
DNA 2: ATATCAAGAAATGGCATAAGTTATTCTTTGAAAGTTCTTAACTTACATATTTAAATTTGTTATTA
B5: binds (CbbR_7120 [5]).
